Experimental data taken from US20250296971A1, “GASTRIC INHIBITORY PEPTIDE RECEPTOR LIGANDS” (priority 2021, published 2025).
*1 amine or outer side, *2 acyl side, *3 side chain or, on linkers, in order; H or OH if unused. Bridges are numbered along the chain shown (N, C = ends). Primed or numbered codes have the meaning given here. [ ]: non-standard residue; d: D form. The star is where a group is joined. Ttds = 1,13-diamino-4,7,10-trioxatridecan-succinamic acid, NCCCOCCOCCOCCCNC(=O)CCC(=O)*; Ttds(3) = 1,13-diamino-4,7,10-trioxatridecan-succinamic acid linker; dE(AGLU) = D-glutamic acid bearing 1-amino-1-deoxy-D-glucitol; Ttds(4) = 1,13-diamino-4,7,10-trioxatridecan-succinamic acid; Pro(trans-4-NH2) = O=C([C@@H]1C[C@@H](N[*:3])CN1[*:1])[*:2]; DOTA = O=C(O)CN1CCN(CC(=O)O)CCN(CC(=O)*)CCN(CC(=O)O)CC1; 2Lut = 2,6-lutidylidene bridge between two thiols; Trp(5-Cl) = N[C@@H](Cc1c[nH]c2ccc(Cl)cc12)C(=O)O; Pyridine(2,6-diCH2) = c1cc(C[*:1])nc(C[*:2])c1; 2Lut″ = 2,6-lutidylidene linking two thiols; APAc = 4-amino-1-carboxymethylpiperidine; Glutaryl = O=C(CCCC(=O)[*:2])[*:1]; AGLU = 1-amino-1-deoxy-D-glucitol; Hyp = O=C(O)[C@@H]1C[C@@H](O)CN1; Cysteamide = C(CS[*:3])N[*:1]; Suc = O=C(CCC(=O)[*:2])[*:1]; N(CH2CH2)2NH = C1CN(*)CCN1; Api = NC1(C(=O)O)CCNCC1; Thp = NC1(C(=O)O)CCOCC1; DOTA′ = DOTA chelator

B1: AGLU-Glutar-Asp-Trp-5Clw-Hyp-Glu-leu-[Cys(2Lut)-Apc(AGLU-Glutar)-Leu-Ile-Cys]-APAc-Lys(DOTA)-NH2 (peptide)
peptide: DWXXEXCXLIC
modifications: AGLU-Glutar; 5Clw; Hyp; D-leu; Apc(AGLU-Glutar); 2Lut bridge Cys-Cys; APAc; Lys(DOTA); C-term NH2

molecular target: biotinylated extracellular domain of the human GIP receptor (bioGIPR) (human) (UniProt P48546); assay: SPR single cycle kinetics, bioGIPR captured on chip; category A: pKD >9.0
Sequence (P48546 24-138 limits assumed): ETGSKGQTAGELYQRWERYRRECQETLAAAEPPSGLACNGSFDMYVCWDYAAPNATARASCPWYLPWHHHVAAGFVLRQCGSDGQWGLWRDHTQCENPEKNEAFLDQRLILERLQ

| pKD | Binder |
| --- | --- |
| > 9 pkd | Suc-W[Trp(5-Cl)][Hyp]E[dL]C[Thp]LIC-{N(CH2CH2)2NH-DOTA′} (linker 6-10 via 2Lut) [HO-Succinyl-Trp-5Clw-Hyp-Glu-leu-[Cys(2Lut)-Thp-Leu-Ile-Cys]-PP-DOTA] |
| > 9 pkd | {DOTA-Ttds}-DW[Trp(5-Cl)][Pro(trans-4-NH2)]E[dL]C[Api]LI[Cysteamide] (linker 7-11 via Pyridine(2,6-diCH2)) [DOTA-Ttds-Asp-Trp-5Clw-Tap-Glu-leu-[Cys(2Lut)-Apc-Leu-Ile-AET]] |
| > 9 pkd | {AGLU-Glutaryl-APAc}-DW[Trp(5-Cl)][Hyp]E[dL]C[Api](DOTA)LIC-{APAc-dE(AGLU)-NH2} (linker 7-11 via Pyridine(2,6-diCH2)) [AGLU-Glutar-APAc-Asp-Trp-5Clw-Hyp-Glu-leu-[Cys(2Lut)-Apc(DOTA)-Leu-Ile-Cys]-APAc-glu(AGLU)-NH2] |
| > 9 pkd | {AGLU-Glutaryl-APAc}-DW[Trp(5-Cl)][Pro(trans-4-NH2)]E[dL]C[Api]LIC-{APAc-dE(AGLU)-NH2} (linker 7-11 via Pyridine(2,6-diCH2); not fully specified (residue 8)) |
| > 9 pkd | B1 |
| > 9 pkd | Suc-W[Trp(5-Cl)][Hyp]E[dL]C[Thp]LIC-{Ttds(3)-Lys(DOTA)-NH2} (linker 6-10 via Pyridine(2,6-diCH2)) [HO-Succinyl-Trp-5Clw-Hyp-Glu-leu-[Cys(2Lut)-Thp-Leu-Ile-Cys]-Ttds-Lys(DOTA)-NH2] |
| > 9 pkd | Ac-DW[Trp(5-Cl)][Pro(trans-4-NH2)](DOTA)E[dL]C[Thp]LIC-NH2 (linker 7-11 via 2Lut″) [Ac-Asp-Trp-5Clw-Tap(DOTA)-Glu-leu-[Cys(2Lut)-Thp-Leu-Ile-Cys]-NH2] |

molecular target: human Gastric Inhibitory Peptide Receptor (human) (UniProt P48546); assay: FACS competition with GIP-057 on CHO-K1-hGIPR cells; pIC50 category A: >8.0
Sequence (P48546 22-466 limits assumed): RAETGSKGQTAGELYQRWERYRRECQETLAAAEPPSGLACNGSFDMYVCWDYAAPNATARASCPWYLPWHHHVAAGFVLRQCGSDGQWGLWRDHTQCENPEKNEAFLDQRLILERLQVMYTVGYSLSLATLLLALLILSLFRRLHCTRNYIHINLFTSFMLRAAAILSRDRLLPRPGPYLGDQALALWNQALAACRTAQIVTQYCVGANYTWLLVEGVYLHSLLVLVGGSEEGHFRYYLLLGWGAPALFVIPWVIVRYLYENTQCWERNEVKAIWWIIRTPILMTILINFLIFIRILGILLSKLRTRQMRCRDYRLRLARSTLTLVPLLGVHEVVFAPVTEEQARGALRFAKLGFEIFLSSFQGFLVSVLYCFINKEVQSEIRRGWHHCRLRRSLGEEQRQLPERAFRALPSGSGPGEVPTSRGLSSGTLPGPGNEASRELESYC

| pIC50 | Binder |
| --- | --- |
| > 8 pic50 | Suc-W[Trp(5-Cl)][Hyp]E[dL]C[Thp]LIC-{N(CH2CH2)2NH-DOTA′} (linker 6-10 via 2Lut) [HO-Succinyl-Trp-5Clw-Hyp-Glu-leu-[Cys(2Lut)-Thp-Leu-Ile-Cys]-PP-DOTA] |
| > 8 pic50 | {DOTA-Ttds}-DW[Trp(5-Cl)][Pro(trans-4-NH2)]E[dL]C[Api]LI[Cysteamide] (linker 7-11 via Pyridine(2,6-diCH2)) [DOTA-Ttds-Asp-Trp-5Clw-Tap-Glu-leu-[Cys(2Lut)-Apc-Leu-Ile-AET]] |
| > 8 pic50 | {AGLU-Glutaryl-APAc}-DW[Trp(5-Cl)][Hyp]E[dL]C[Api](DOTA)LIC-{APAc-dE(AGLU)-NH2} (linker 7-11 via Pyridine(2,6-diCH2)) [AGLU-Glutar-APAc-Asp-Trp-5Clw-Hyp-Glu-leu-[Cys(2Lut)-Apc(DOTA)-Leu-Ile-Cys]-APAc-glu(AGLU)-NH2] |
| > 8 pic50 | {AGLU-Glutaryl-APAc}-DW[Trp(5-Cl)][Pro(trans-4-NH2)]E[dL]C[Api]LIC-{APAc-dE(AGLU)-NH2} (linker 7-11 via Pyridine(2,6-diCH2); not fully specified (residue 8)) |
| > 8 pic50 | B1 |
| > 8 pic50 | Suc-W[Trp(5-Cl)][Hyp]E[dL]C[Thp]LIC-{Ttds(3)-Lys(DOTA)-NH2} (linker 6-10 via Pyridine(2,6-diCH2)) [HO-Succinyl-Trp-5Clw-Hyp-Glu-leu-[Cys(2Lut)-Thp-Leu-Ile-Cys]-Ttds-Lys(DOTA)-NH2] |
| > 8 pic50 | Ac-DW[Trp(5-Cl)][Pro(trans-4-NH2)](DOTA)E[dL]C[Thp]LIC-NH2 (linker 7-11 via 2Lut″) [Ac-Asp-Trp-5Clw-Tap(DOTA)-Glu-leu-[Cys(2Lut)-Thp-Leu-Ile-Cys]-NH2] |

molecular target: biotinylated extracellular domain of the human GIP receptor (bioGIPR) (human) (UniProt P48546); assay: SPR single cycle kinetics, bioGIPR captured on chip; category A: t1/2 >15 min

| t1/2 | Binder |
| --- | --- |
| > 15 min | Suc-W[Trp(5-Cl)][Hyp]E[dL]C[Thp]LIC-{N(CH2CH2)2NH-DOTA′} (linker 6-10 via 2Lut) [HO-Succinyl-Trp-5Clw-Hyp-Glu-leu-[Cys(2Lut)-Thp-Leu-Ile-Cys]-PP-DOTA] |
| > 15 min | {DOTA-Ttds}-DW[Trp(5-Cl)][Pro(trans-4-NH2)]E[dL]C[Api]LI[Cysteamide] (linker 7-11 via Pyridine(2,6-diCH2)) [DOTA-Ttds-Asp-Trp-5Clw-Tap-Glu-leu-[Cys(2Lut)-Apc-Leu-Ile-AET]] |
| > 15 min | {AGLU-Glutaryl-APAc}-DW[Trp(5-Cl)][Hyp]E[dL]C[Api](DOTA)LIC-{APAc-dE(AGLU)-NH2} (linker 7-11 via Pyridine(2,6-diCH2)) [AGLU-Glutar-APAc-Asp-Trp-5Clw-Hyp-Glu-leu-[Cys(2Lut)-Apc(DOTA)-Leu-Ile-Cys]-APAc-glu(AGLU)-NH2] |
| > 15 min | {AGLU-Glutaryl-APAc}-DW[Trp(5-Cl)][Pro(trans-4-NH2)]E[dL]C[Api]LIC-{APAc-dE(AGLU)-NH2} (linker 7-11 via Pyridine(2,6-diCH2); not fully specified (residue 8)) |
| > 15 min | B1 |
| > 15 min | Suc-W[Trp(5-Cl)][Hyp]E[dL]C[Thp]LIC-{Ttds(3)-Lys(DOTA)-NH2} (linker 6-10 via Pyridine(2,6-diCH2)) [HO-Succinyl-Trp-5Clw-Hyp-Glu-leu-[Cys(2Lut)-Thp-Leu-Ile-Cys]-Ttds-Lys(DOTA)-NH2] |
| > 15 min | Ac-DW[Trp(5-Cl)][Pro(trans-4-NH2)](DOTA)E[dL]C[Thp]LIC-NH2 (linker 7-11 via 2Lut″) [Ac-Asp-Trp-5Clw-Tap(DOTA)-Glu-leu-[Cys(2Lut)-Thp-Leu-Ile-Cys]-NH2] |
